Measured values taken from the supplement of paper PMC10567573.

B1: HDAC6 (parent)
chain: DLMETTQYMNEGELRVLADTYDSV

Variants of: B1
Assay: protein stability index of a GFP-peptide fusion (GPS, HEK-293T) (PSI 1-6); higher = more stable
Details: c terminus: a fixed tail appended
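Note: lentivirally expressed fusions sorted by FACS into six bins by GFP to DsRed ratio, PSI derived from sequencing read proportions per bin multiplied by bin number.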

Protein stability index, by site and new letter:
N10: G 3.14; H 2.57; M 4.08; P 4.49; Q 2.07; R 1.75; S 1.74; T 2.21; V 1.8; Y 3.32
E11: A 2.15; C 2.47; D 1.69; F 2; G 3.58; H 2.78; I 1.86; K 2.89; L 2.6; M 3.15; N 3.13; P 3.65; Q 2.6; R 3.19; S 2.95; T 2.9; V 2.45; W 1.89; Y 2.43
G12: A 2.33; C 3.07; D 4.79; E 4.82; F 2.85; H 3.46; I 2.9; K 3.87; L 3.56; M 3.18; N 4.08; P 4.74; Q 4.16; R 3.71; S 3.58; T 3.49; V 2.85; W 2.03; Y 2.62
E13: A 3.38; C 3.37; D 3.9; F 2.66; G 4.06; H 3.2; I 2.47; K 3.69; L 2.63; M 2.65; N 3.96; P 3.74; Q 4.13; R 3.63; S 3.56; T 3.84; V 3.53; W 2.32; Y 2.83
L14: A 2.11; C 1.97; D 2.32; E 2.07; F 1.74; G 2.92; H 2.29; I 2.26; K 2.96; M 1.62; N 3.03; P 4.29; Q 2.28; S 2.21; T 3.56; V 2.83; W 2.48; Y 1.87
R15: A 1.77; C 1.5; D 3.8; E 2.01; F 2.64; G 3.24; H 2.03; I 2.2; K 2.27; L 1.5; M 1.89; N 2.67; P 4.61; Q 1.76; S 2.09; T 2.58; V 2.37; Y 2.39
V16: A 3.72; C 2.72; D 4.54; E 4.75; F 3.61; G 4.03; H 4.62; I 2.1; K 3.91; L 3.27; M 3.99; N 4.06; P 4.81; Q 4.23; R 4.01; S 4.42; T 4.2; W 3.54; Y 3.9
L17: A 2.33; C 3.03; D 5.03; F 2.05; G 3.86; H 2.12; I 2.77; K 2.75; M 2.01; N 4.55; P 4.47; Q 3.11; R 2.97; S 4.34; T 3.59; V 1.64; W 2.33; Y 1.99
A18: C 2.47; D 2.82; E 2.11; F 1.86; G 2.86; H 2.06; I 1.83; K 2.18; L 1.75; M 1.12; N 1.65; P 3.97; Q 1.62; R 2.12; S 2.09; T 1.94; V 2.4; W 1.7; Y 1.87
D19: E 2.03; F 2.78; G 2.6; H 2.42; I 2.55; K 2.52; L 1.64; N 1.79
